The source of these data is patent US20240209076A1 (KODIAK SCIENCES, published 2024).

Experiment [1] concerns the target T1, recombinant human IL-6 (human, UniProt P05231 30-212).
T1 construct: Flowed in solution over the captured antibodies
Kind of experiment: SPR (Biacore), purified IgG on Protein A, 37 C. The procedure:
Antibodies were captured on a Protein A chip (GE) by injecting 1:20 dilution of cell supernatant at 10 μL/min for 60 seconds. […] The sensor chip was regenerated by a 60 seconds injection of 10 mM Glycine pH 1.7 at flow rate of 50 μL/min. […] For this setup, 1 μg/mL of purified antibody was injected over a Protein A chip at 10 μL/min for 25-28 seconds. Data analysis for supernatant and purified samples were performed using BIAevaluation software (GE). All sensorgrams were double reference subtracted and fit using a 1:1 Langmuir binding model.
On the technique in general: In SPR one partner is held on a chip, and binding of the other changes the refractive index at the surface.

Experiment [2] addresses T1, recombinant human IL-6. Kind of experiment: SPR (Biacore), supernatant IgG on Protein A, 25 C.

T1 sequence (P05231 30-212 limits assumed): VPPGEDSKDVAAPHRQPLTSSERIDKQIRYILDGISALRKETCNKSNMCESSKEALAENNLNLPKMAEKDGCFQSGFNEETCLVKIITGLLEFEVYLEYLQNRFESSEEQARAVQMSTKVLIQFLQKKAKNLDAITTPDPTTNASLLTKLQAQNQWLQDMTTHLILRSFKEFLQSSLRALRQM

B1: anti-IL-6 antibody, heavy chain D62Q, light chain WT (antibody, IgG1, V domains shown)
VH: EVQLVESGGGLVQPGGSLRLSCAASGFTFSPFAMSWVRQAPGKGLEWVAKISPGGSWTYYSQTVTGRFTFSLDTSKSTAYLQMNSLRAEDTAVYYCARQLWGYYALDIWGQGTLVTVSS
VL: DIQLTQSPSSLSASVGDRVTITCSASISVSYMYWYQQKPGKAPKLLIYDMSNLASGVPSRFSGSGSGTDFTLTISSLQPEDFATYYCMQWSGYPYTFGQGTKVEIK
notes: Full IgG1 tested; V domains derived as in m2
What is called Kd is the concentration at which binding is half-saturated. Usually koff stands for the rate constant with which the complex falls apart. The term kon denotes the rate constant with which the complex forms. With B1, in the experiment with recombinant human IL-6 [1], the Kd amounted to 687 pM, the koff amounted to 0.000601 s⁻¹ and the kon amounted to 875000 M⁻¹ s⁻¹. Also, in the experiment with recombinant human IL-6 [2], the Kd was 366 pM, the koff was determined as 0.000148 s⁻¹ and the kon was found to be 403000 M⁻¹ s⁻¹.

B2: anti-IL-6 antibody, heavy chain G26R, light chain WT (antibody, IgG1, V domains shown)
VH: EVQLVESGGGLVQPGGSLRLSCAASRFTFSPFAMSWVRQAPGKGLEWVAKISPGGSWTYYSDTVTGRFTFSLDTSKSTAYLQMNSLRAEDTAVYYCARQLWGYYALDIWGQGTLVTVSS
VL: DIQLTQSPSSLSASVGDRVTITCSASISVSYMYWYQQKPGKAPKLLIYDMSNLASGVPSRFSGSGSGTDFTLTISSLQPEDFATYYCMQWSGYPYTFGQGTKVEIK
notes: as for B1
On to B2, for which, in the experiment with recombinant human IL-6 [1], the Kd was 465 pM, the koff worked out at 0.000326 s⁻¹ and the kon came out at 702000 M⁻¹ s⁻¹. Also, in the experiment with recombinant human IL-6 [2], the Kd is 302 pM, the off-rate constant (koff) was determined as 0.000121 s⁻¹ and the kon was 402000 M⁻¹ s⁻¹.

B3: anti-IL-6 antibody, heavy chain L100Q, light chain WT (antibody, IgG1, V domains shown)
VH: EVQLVESGGGLVQPGGSLRLSCAASGFTFSPFAMSWVRQAPGKGLEWVAKISPGGSWTYYSDTVTGRFTFSLDTSKSTAYLQMNSLRAEDTAVYYCARQQWGYYALDIWGQGTLVTVSS
VL: DIQLTQSPSSLSASVGDRVTITCSASISVSYMYWYQQKPGKAPKLLIYDMSNLASGVPSRFSGSGSGTDFTLTISSLQPEDFATYYCMQWSGYPYTFGQGTKVEIK
notes: as for B1
With B3, in the experiment with recombinant human IL-6 [1], the Kd worked out at 499 pM, the koff was found to be 0.00041 s⁻¹ and the kon was 823000 M⁻¹ s⁻¹. Besides, in the experiment with recombinant human IL-6 [2], the Kd was found to be 384 pM, the koff was 0.000153 s⁻¹ and the on-rate constant (kon) worked out at 398000 M⁻¹ s⁻¹.

B4: anti-IL-6 antibody, heavy chain G66D, light chain WT (antibody, IgG1, V domains shown)
VH: EVQLVESGGGLVQPGGSLRLSCAASGFTFSPFAMSWVRQAPGKGLEWVAKISPGGSWTYYSDTVTDRFTFSLDTSKSTAYLQMNSLRAEDTAVYYCARQLWGYYALDIWGQGTLVTVSS
VL: DIQLTQSPSSLSASVGDRVTITCSASISVSYMYWYQQKPGKAPKLLIYDMSNLASGVPSRFSGSGSGTDFTLTISSLQPEDFATYYCMQWSGYPYTFGQGTKVEIK
notes: Full IgG1 tested
As for B4, in the experiment with recombinant human IL-6 [1], the Kd is 69.5 pM, the koff is 0.000136 s⁻¹ and the kon stood at 1.96e+06 M⁻¹ s⁻¹. Besides, in the experiment with recombinant human IL-6 [2], the Kd came out at 90.2 pM, the koff was found to be 0.000117 s⁻¹ and the kon turned out to be 1.3e+06 M⁻¹ s⁻¹.

B5: anti-IL-6 antibody, heavy chain G66E, light chain WT (antibody, IgG1, V domains shown)
VH: EVQLVESGGGLVQPGGSLRLSCAASGFTFSPFAMSWVRQAPGKGLEWVAKISPGGSWTYYSDTVTERFTFSLDTSKSTAYLQMNSLRAEDTAVYYCARQLWGYYALDIWGQGTLVTVSS
VL: DIQLTQSPSSLSASVGDRVTITCSASISVSYMYWYQQKPGKAPKLLIYDMSNLASGVPSRFSGSGSGTDFTLTISSLQPEDFATYYCMQWSGYPYTFGQGTKVEIK
notes: as for B1
With B5, in the experiment with recombinant human IL-6 [1], the Kd came to 89.5 pM, the koff amounted to 0.000171 s⁻¹ and the kon turned out to be 1.91e+06 M⁻¹ s⁻¹. In the experiment with recombinant human IL-6 [2], the Kd stood at 107 pM, the koff was 0.00011 s⁻¹ and the kon was 1.02e+06 M⁻¹ s⁻¹.

B6: anti-IL-6 antibody, heavy chain D107E, light chain WT (antibody, IgG1, V domains shown)
VH: EVQLVESGGGLVQPGGSLRLSCAASGFTFSPFAMSWVRQAPGKGLEWVAKISPGGSWTYYSDTVTGRFTFSLDTSKSTAYLQMNSLRAEDTAVYYCARQLWGYYALEIWGQGTLVTVSS
VL: DIQLTQSPSSLSASVGDRVTITCSASISVSYMYWYQQKPGKAPKLLIYDMSNLASGVPSRFSGSGSGTDFTLTISSLQPEDFATYYCMQWSGYPYTFGQGTKVEIK
notes: as for B1
B6: in the experiment with recombinant human IL-6 [1], the dissociation constant (Kd) was 527 pM, the koff was 0.000402 s⁻¹ and the kon worked out at 762000 M⁻¹ s⁻¹. Besides, in the experiment with recombinant human IL-6 [2], the Kd came out at 290 pM, the koff is 0.000147 s⁻¹ and the kon came out at 509000 M⁻¹ s⁻¹.

B7: anti-IL-6 antibody, heavy chain G26S, light chain WT (antibody, IgG1, V domains shown)
VH: EVQLVESGGGLVQPGGSLRLSCAASSFTFSPFAMSWVRQAPGKGLEWVAKISPGGSWTYYSDTVTGRFTFSLDTSKSTAYLQMNSLRAEDTAVYYCARQLWGYYALDIWGQGTLVTVSS
VL: DIQLTQSPSSLSASVGDRVTITCSASISVSYMYWYQQKPGKAPKLLIYDMSNLASGVPSRFSGSGSGTDFTLTISSLQPEDFATYYCMQWSGYPYTFGQGTKVEIK
notes: as for B1
B7: in the experiment with recombinant human IL-6 [1], the Kd is 463 pM, the koff stood at 0.00039 s⁻¹ and the kon amounted to 842000 M⁻¹ s⁻¹. Besides, in the experiment with recombinant human IL-6 [2], the Kd stood at 209 pM, the koff came out at 0.000115 s⁻¹ and the kon is 551000 M⁻¹ s⁻¹.

B8: anti-IL-6 antibody, heavy chain I108F, light chain WT (antibody, IgG1, V domains shown)
VH: EVQLVESGGGLVQPGGSLRLSCAASGFTFSPFAMSWVRQAPGKGLEWVAKISPGGSWTYYSDTVTGRFTFSLDTSKSTAYLQMNSLRAEDTAVYYCARQLWGYYALDFWGQGTLVTVSS
VL: DIQLTQSPSSLSASVGDRVTITCSASISVSYMYWYQQKPGKAPKLLIYDMSNLASGVPSRFSGSGSGTDFTLTISSLQPEDFATYYCMQWSGYPYTFGQGTKVEIK
notes: as for B1
On to B8, for which, in the experiment with recombinant human IL-6 [1], the Kd was 587 pM, the koff came to 0.000401 s⁻¹ and the kon stood at 683000 M⁻¹ s⁻¹. Further, in the experiment with recombinant human IL-6 [2], the Kd stood at 399 pM, the dissociation rate constant (koff) worked out at 0.000146 s⁻¹ and the kon was determined as 365000 M⁻¹ s⁻¹.

B9: anti-IL-6 antibody, heavy chain I108E, light chain WT (antibody, IgG1, V domains shown)
VH: EVQLVESGGGLVQPGGSLRLSCAASGFTFSPFAMSWVRQAPGKGLEWVAKISPGGSWTYYSDTVTGRFTFSLDTSKSTAYLQMNSLRAEDTAVYYCARQLWGYYALDEWGQGTLVTVSS
VL: DIQLTQSPSSLSASVGDRVTITCSASISVSYMYWYQQKPGKAPKLLIYDMSNLASGVPSRFSGSGSGTDFTLTISSLQPEDFATYYCMQWSGYPYTFGQGTKVEIK
notes: as for B1
Regarding B9, in the experiment with recombinant human IL-6 [1], the dissociation constant Kd was found to be 404 pM, the koff is 0.000372 s⁻¹ and the kon is 921000 M⁻¹ s⁻¹. Further, in the experiment with recombinant human IL-6 [2], the dissociation constant (Kd) is 305 pM, the koff came to 0.000174 s⁻¹ and the kon came to 571000 M⁻¹ s⁻¹.

B10: anti-IL-6 antibody, heavy chain F29Y, light chain WT (antibody, IgG1, V domains shown)
VH: EVQLVESGGGLVQPGGSLRLSCAASGFTYSPFAMSWVRQAPGKGLEWVAKISPGGSWTYYSDTVTGRFTFSLDTSKSTAYLQMNSLRAEDTAVYYCARQLWGYYALDIWGQGTLVTVSS
VL: DIQLTQSPSSLSASVGDRVTITCSASISVSYMYWYQQKPGKAPKLLIYDMSNLASGVPSRFSGSGSGTDFTLTISSLQPEDFATYYCMQWSGYPYTFGQGTKVEIK
notes: as for B1
On to B10, for which, in the experiment with recombinant human IL-6 [1], the Kd stood at 444 pM, the koff amounted to 0.000374 s⁻¹ and the kon turned out to be 842000 M⁻¹ s⁻¹. Besides, in the experiment with recombinant human IL-6 [2], the Kd worked out at 266 pM, the koff turned out to be 0.000133 s⁻¹ and the kon came to 499000 M⁻¹ s⁻¹.

B11: anti-IL-6 antibody, heavy chain F29H, light chain WT (antibody, IgG1, V domains shown)
VH: EVQLVESGGGLVQPGGSLRLSCAASGFTHSPFAMSWVRQAPGKGLEWVAKISPGGSWTYYSDTVTGRFTFSLDTSKSTAYLQMNSLRAEDTAVYYCARQLWGYYALDIWGQGTLVTVSS
VL: DIQLTQSPSSLSASVGDRVTITCSASISVSYMYWYQQKPGKAPKLLIYDMSNLASGVPSRFSGSGSGTDFTLTISSLQPEDFATYYCMQWSGYPYTFGQGTKVEIK
notes: as for B1
As to B11, in the experiment with recombinant human IL-6 [1], the Kd was found to be 466 pM, the koff was 0.000397 s⁻¹ and the kon is 850000 M⁻¹ s⁻¹. Moreover, in the experiment with recombinant human IL-6 [2], the Kd turned out to be 273 pM, the koff amounted to 0.000135 s⁻¹ and the kon was 495000 M⁻¹ s⁻¹.

B12: anti-IL-6 antibody, heavy chain I51R, light chain WT (antibody, IgG1, V domains shown)
VH: EVQLVESGGGLVQPGGSLRLSCAASGFTFSPFAMSWVRQAPGKGLEWVAKRSPGGSWTYYSDTVTGRFTFSLDTSKSTAYLQMNSLRAEDTAVYYCARQLWGYYALDIWGQGTLVTVSS
VL: DIQLTQSPSSLSASVGDRVTITCSASISVSYMYWYQQKPGKAPKLLIYDMSNLASGVPSRFSGSGSGTDFTLTISSLQPEDFATYYCMQWSGYPYTFGQGTKVEIK
notes: as for B1
Consider B12, for which, in the experiment with recombinant human IL-6 [1], the Kd is 505 pM, the koff came out at 0.000343 s⁻¹ and the kon worked out at 679000 M⁻¹ s⁻¹. Moreover, in the experiment with recombinant human IL-6 [2], the Kd came to 165 pM, the koff worked out at 7.6e-05 s⁻¹ and the kon was 462000 M⁻¹ s⁻¹.

B13: anti-IL-6 antibody, heavy chain F32G, light chain WT (antibody, IgG1, V domains shown)
VH: EVQLVESGGGLVQPGGSLRLSCAASGFTFSPGAMSWVRQAPGKGLEWVAKISPGGSWTYYSDTVTGRFTFSLDTSKSTAYLQMNSLRAEDTAVYYCARQLWGYYALDIWGQGTLVTVSS
VL: DIQLTQSPSSLSASVGDRVTITCSASISVSYMYWYQQKPGKAPKLLIYDMSNLASGVPSRFSGSGSGTDFTLTISSLQPEDFATYYCMQWSGYPYTFGQGTKVEIK
notes: as for B1
Take B13: in the experiment with recombinant human IL-6 [1], the Kd is 569 pM, the koff was determined as 0.00037 s⁻¹ and the kon is 650000 M⁻¹ s⁻¹. In the experiment with recombinant human IL-6 [2], the Kd stood at 318 pM, the koff is 0.000133 s⁻¹ and the kon was 418000 M⁻¹ s⁻¹.

B14: anti-IL-6 antibody, heavy chain I108S, light chain WT (antibody, IgG1, V domains shown)
VH: EVQLVESGGGLVQPGGSLRLSCAASGFTFSPFAMSWVRQAPGKGLEWVAKISPGGSWTYYSDTVTGRFTFSLDTSKSTAYLQMNSLRAEDTAVYYCARQLWGYYALDSWGQGTLVTVSS
VL: DIQLTQSPSSLSASVGDRVTITCSASISVSYMYWYQQKPGKAPKLLIYDMSNLASGVPSRFSGSGSGTDFTLTISSLQPEDFATYYCMQWSGYPYTFGQGTKVEIK
notes: as for B1
On to B14, for which, in the experiment with recombinant human IL-6 [1], the Kd was 391 pM, the koff was determined as 0.000336 s⁻¹ and the kon stood at 858000 M⁻¹ s⁻¹. Moreover, in the experiment with recombinant human IL-6 [2], the Kd is 256 pM, the koff was found to be 0.000141 s⁻¹ and the on-rate (kon) stood at 554000 M⁻¹ s⁻¹.
